Biological target: human CD28 (human, UniProt P10747 19-220)
Test: cell-based or functional assay

- Luciferase assay (EC50): 1800 nM
B1: 1h-76 (other)
VL: DIQMTQSPSSLSASVGDRVTITCRASQYIGTRLVWYQQKPGKAPKLLIYQSSLLQSGVPSRFRGSGSGTDFTLTISSLQPEDSATYYCQQTALVPYTFGQGTKVEIKR
